This is an account of results in patent EP4733314A1, “NOVEL BISPECIFIC FUSION PROTEIN AND USE THEREOF” (Slbigen Inc., priority 2023, dated 2024).

A short description of assay [1]: Anti-diabetic effect in db/db mice (blood glucose, HbA1c, insulin, HOMA-IR, HOMA-β). The conditions noted are these: 15 nmol/kg s.c. every three days for 12 weeks. The class given is in vivo. The procedure: Specifically, 14-week-old male db/db mice (Janvier Labs, France) were subcutaneously injected every three days for 12 weeks with designated doses of Semaglutide, Tirzepatide, or the bispecific fusion protein MG12-8 according to one embodiment of the present invention. Subsequently, non-fasting blood glucose levels were measured at 25-day intervals (on days 25, 50, and 75 of the experiment), and HbA1c levels were measured monthly up to three months. Additionally, at the end of the experiment, fasting blood glucose and serum insulin concentrations were determined, and HOMA-IR and HOMA-β scores were calculated.

The nature of assay [2]: Histological analysis of pancreatic tissue of db/db mice. The class given is in vivo. The conditions noted are these: pancreas after 12 weeks of dosing. The text has this:
Subsequently, after completion of the above experiment, the present inventors sacrificed the experimental animals and performed histological analysis of pancreatic tissues. Specifically, after euthanizing the animals under general anesthesia at the end of the animal study, the pancreas was excised, fixed in 4% paraformaldehyde, embedded in paraffin, sectioned transversely into 5 µm slices using a microtome, and then subjected to staining either with insulin alone, double staining with insulin and glucagon, or double staining with insulin and Ki-67. All double staining was carried out using fluorescent-labeled antibodies, followed by imaging with a confocal laser microscope.

A short description of assay [3]: Body weight in MASH model with intestinal leakage (CD-HFD + DSS). The class given is in vivo, C57BL/6J mice. The conditions noted are these: 55 nmol/kg twice daily s.c., two weeks after first administration. The text has this:
(§1) Subsequently, the present inventors investigated the weight reduction and regulation of intestinal leakage in a metabolic dysfunction-associated steatohepatitis (MASH) animal model with intestinal leakage, using Liraglutide as a comparative control and MG12-8 according to one embodiment of the present invention. Specifically, twenty-week-old male C57BL/6J mice were obtained, and overweight was induced by feeding a choline-deficient high-fat diet (CD-HFD). In addition, intestinal leakage was induced by cyclically administering dextran sulfate sodium (DSS) at a low concentration of 1% for 7 days followed by 10 days of regular drinking water. After two weeks from the initiation of CD-HFD feeding, Liraglutide and MG12-8 were subcutaneously administered at their respective prescribed dosages and dosing intervals. Two weeks after the first administration, body weight was measured (FIG. 4a). To assess intestinal leakage, a fluorescein isothiocyanate (FITC)-Dextran (4 kDa) solution was administered orally 4 hours before sacrifice, after which the mice were fasted. The amount of FITC-Dextran translocated into the blood was then evaluated by measuring fluorescence intensity in serum.

Assay [4] is described as follows: Intestinal leakage (serum FITC-Dextran fluorescence) in MASH model (CD-HFD + DSS). The class given is in vivo, C57BL/6J mice. The conditions noted are these: 55 nmol/kg twice daily s.c.
Text: as §1

Assay [5] deals with GLP-1 receptor. The experiment in a line: cell-based or functional assay.
The target of assay [6] is GLP-2 receptor. Briefly: cell-based or functional assay.

With `CC[C@H](C)[C@H](NC(=O)[C@H](CC(C)C)NC(=O)[C@H](Cc1c[nH]c2ccccc12)NC(=O)[C@H](CCC(N)=O)NC(=O)[C@@H](NC(=O)[C@H](Cc1ccccc1)NC(=O)[C@H](C)NC(=O)[C@H](CCCCNC(=O)COCCOCCNC(=O)COCCOCCNC(=O)CC[C@H](NC(=O)CCCCCCCCCCCCCCCCCCC(=O)O)C(=O)O)NC(=O)[C@H](CCC(N)=O)NC(=O)[C@H](C)NC(=O)[C@@H](NC(=O)[C@H](CCCCN)NC(=O)[C@H](CC(=O)O)NC(=O)[C@H](CC(C)C)NC(=O)C(C)(C)NC(=O)[C@@H](NC(=O)[C@H](CO)NC(=O)[C@H](Cc1ccc(O)cc1)NC(=O)[C@H](CC(=O)O)NC(=O)[C@H](CO)NC(=O)[C@@H](NC(=O)[C@H](Cc1ccccc1)NC(=O)[C@@H](NC(=O)CNC(=O)[C@H](CCC(=O)O)NC(=O)C(C)(C)NC(=O)[C@@H](N)Cc1ccc(O)cc1)[C@@H](C)O)[C@@H](C)O)[C@@H](C)CC)[C@@H](C)CC)C(C)C)C(=O)N[C@@H](C)C(=O)NCC(=O)NCC(=O)N1CCC[C@H]1C(=O)N[C@@H](CO)C(=O)N[C@@H](CO)C(=O)NCC(=O)N[C@@H](C)C(=O)N1CCC[C@H]1C(=O)N1CCC[C@H]1C(=O)N1CCC[C@H]1C(=O)N[C@@H](CO)C(N)=O` [Tirzepatide], in assay [1], the “insulin resistance index (HOMA-IR)” value was more than 40. In assay [2], the “number of Ki-67-positive cells per 10,000 µm^2” value is reported as “showed no improvement compared with the control group”.
With “Liraglutide (HAEGTFTSDVSSYLEGQAAKEFIAWLVRGRG; REGION 1..31: note = Liraglutide) [GLP-1 receptor agonist marketed by Novo Nordisk as Victoza for the treatment of type 2 diabetes and obesity]”, the “body weight compared with vehicle” value in assay [3] was “reduced body weights compared with the vehicle-administered group”. The “intestinal leakage suppression activity (serum FITC-Dextran)” value in assay [4] is “did not exhibit intestinal leakage suppression activity relative to the control”.
For the molecule “wild-type GLP-1 (human GLP-1 peptide) (from UniProt P01275 21-180)”, in assay [5], the GLP-1 activity (Set1), EC50 (nM); cAMP bioluminescence in GLP-1R-expressing CHO-K1 cells is 0.69 nM; the GLP-1 activity (Set1), Relative activity compared with hGLP-1 peptide (%) came out at 100%; the GLP-1 activity (Set2), EC50 (nM); cAMP bioluminescence in GLP-1R-expressing CHO-K1 cells came out at 0.89 nM; the GLP-1 activity (Set2), Relative activity compared with hGLP-1 peptide (%) came to 100%.
wild-type GLP-2 (human GLP-2 peptide) gave a GLP-2 activity, EC50 (nM); cAMP bioluminescence in GLP-2R-expressing CHO-K1 cells in assay [6] of 1.18 nM.

B1: MG12-6 (Fc fusion)
chain 1: HGEGTFTSDVSSYLEGQAAKEFIAWLVKGGPSSGAPPPSGGGGSGGGGSGGGGSEKEKEEQEERTHTCPPCPSHTQPLGVFLFPPKPKDQLMISRTPEVTCVVVDVSQEDPEVQFNWYVDGVEVHNAKTKPREEQFNSTYRVVSVLTVLHQDWLNGKEYKCKVSNKGLPSSIEKTISKAKGQPREPQVYTLPPCQEEMTKNQVSLWCLVKGFYPSDIAVEWESNGQPENNYKTTPPVLDSDGSFFLYSRLTVDKSRWQEGNVFSCSVLHEALHNHYTQKSLSLSLGK
chain 2: HGDGSFSDEMNTILDNLAARDFINWLIQTKITDGGGGGSGGGGSGGGGSAKNTTAPATTRNTTRGGEEKKKEKEKEEQEERTHTCPPCPSHTQPLGVFLFPPKPKDQLMISRTPEVTCVVVDVSQEDPEVQFNWYVDGVEVHNAKTKPREEQFNSTYRVVSVLTVLHQDWLNGKEYKCKVSNKGLPSSIEKTISKAKGQPREPQVCTLPPSQEEMTKNQVSLSCAVKGFYPSDIAVEWESNGQPENNYKTTPPVLDSDGSFFLVSRLTVDKSRWQEGNVFSCSVLHEALHNHYTQKSLSLSLGK
In assay [6], B1 came in with a GLP-2 activity, EC50 (nM); cAMP bioluminescence in GLP-2R-expressing CHO-K1 cells of 2.42 nM and a GLP-2 activity, Relative activity compared with hGLP-2 peptide (%) of 49%. Besides, in assay [5], the GLP-1 activity (Set1), EC50 (nM); cAMP bioluminescence in GLP-1R-expressing CHO-K1 cells came out at 1.57 nM; the GLP-1 activity (Set1), Relative activity compared with hGLP-1 peptide (%) was 44%; the GLP-1 activity (Set2), EC50 (nM); cAMP bioluminescence in GLP-1R-expressing CHO-K1 cells turned out to be 1.12 nM; the GLP-1 activity (Set2), Relative activity compared with hGLP-1 peptide (%) amounted to 79%.

B2: MG12-7 (Fc fusion)
chain 1: HGEGTFTSDVSSYLEGQAAKEFIAWLVKGGPSSGAPPPSGGGGSGGGGSGGGGSAKNTTAPATTRNTTRGGEEKKKEKEKEEQEERTHTCPPCPSHTQPLGVFLFPPKPKDQLMISRTPEVTCVVVDVSQEDPEVQFNWYVDGVEVHNAKTKPREEQFNSTYRVVSVLTVLHQDWLNGKEYKCKVSNKGLPSSIEKTISKAKGQPREPQVYTLPPCQEEMTKNQVSLWCLVKGFYPSDIAVEWESNGQPENNYKTTPPVLDSDGSFFLYSRLTVDKSRWQEGNVFSCSVLHEALHNHYTQKSLSLSLGK
chain 2: HGDGSFSDEMNTILDGQAARDFINWLIQTKITDGGGGSGGGGSGGGGSEPKSSDKTHTCPPCPSHTQPLGVFLFPPKPKDQLMISRTPEVTCVVVDVSQEDPEVQFNWYVDGVEVHNAKTKPREEQFNSTYRVVSVLTVLHQDWLNGKEYKCKVSNKGLPSSIEKTISKAKGQPREPQVCTLPPSQEEMTKNQVSLSCAVKGFYPSDIAVEWESNGQPENNYKTTPPVLDSDGSFFLVSRLTVDKSRWQEGNVFSCSVLHEALHNHYTQKSLSLSLGK
B2: in assay [6], the GLP-2 activity, EC50 (nM); cAMP bioluminescence in GLP-2R-expressing CHO-K1 cells turned out to be 50.8 nM and the GLP-2 activity, Relative activity compared with hGLP-2 peptide (%) worked out at 2%. For the same molecule, in assay [5], the GLP-1 activity (Set1), EC50 (nM); cAMP bioluminescence in GLP-1R-expressing CHO-K1 cells is 0.35 nM; the GLP-1 activity (Set1), Relative activity compared with hGLP-1 peptide (%) worked out at 194%; the GLP-1 activity (Set2), EC50 (nM); cAMP bioluminescence in GLP-1R-expressing CHO-K1 cells was 0.57 nM; the GLP-1 activity (Set2), Relative activity compared with hGLP-1 peptide (%) worked out at 156%.

B3: MG12-8 (Fc fusion)
chain 1: HGEGTFTSDVSSYLEGQAAKEFIAWLVKGGPSSGAPPPSGGGGSGGGGSGGGGSGGGGSGGGGSGGGGSHGEGTFTSDVSSYLEGQAAKEFIAWLVKGGPSSGAPPPSGGGGSGGGGSGGGGSEPKSSDKTHTCPPCPSHTQPLGVFLFPPKPKDQLMISRTPEVTCVVVDVSQEDPEVQFNWYVDGVEVHNAKTKPREEQFNSTYRVVSVLTVLHQDWLNGKEYKCKVSNKGLPSSIEKTISKAKGQPREPQVYTLPPCQEEMTKNQVSLWCLVKGFYPSDIAVEWESNGQPENNYKTTPPVLDSDGSFFLYSRLTVDKSRWQEGNVFSCSVLHEALHNHYTQKSLSLSLGK
chain 2: B2 chain 2
In assay [6], B3 yielded a GLP-2 activity, EC50 (nM); cAMP bioluminescence in GLP-2R-expressing CHO-K1 cells of 19 nM and a GLP-2 activity, Relative activity compared with hGLP-2 peptide (%) of 6%. In assay [5], the GLP-1 activity (Set1), EC50 (nM); cAMP bioluminescence in GLP-1R-expressing CHO-K1 cells came to 0.81 nM; the GLP-1 activity (Set1), Relative activity compared with hGLP-1 peptide (%) came to 85%; the GLP-1 activity (Set2), EC50 (nM); cAMP bioluminescence in GLP-1R-expressing CHO-K1 cells worked out at 0.71 nM; the GLP-1 activity (Set2), Relative activity compared with hGLP-1 peptide (%) was 125%. In addition, in assay [5], the relative GLP-1 activity, MG12-8 Sample #1; cAMP bioluminescence in HEK-GLP-1R cells was 100%; the relative GLP-1 activity, MG12-8 Sample #2; cAMP bioluminescence in HEK-GLP-1R cells stood at 200%; the relative GLP-1 activity, MG12-8 Sample #3; cAMP bioluminescence in HEK-GLP-1R cells turned out to be 300%; the relative GLP-1 activity, MG12-8 Sample #4; cAMP bioluminescence in HEK-GLP-1R cells is 400%.
